Assay [1] deals with T1, Human CD3 on naive human T cells (human, UniProt P07766 23-207).
T1 construct: whole, on cells; on cells it stands in the CD3/TCR complex
The experiment in a line: flow cytometry titration on naive human T cells (PE-A Geo Mean against Ab in nM). For orientation: A flow cytometer gives signals particle by particle.

A further assay deals with T2, Human CD3 epsilon-delta (human).
T2 construct: Single-chain epsilon-linker-delta with His6; also called huCD3
T2 chain: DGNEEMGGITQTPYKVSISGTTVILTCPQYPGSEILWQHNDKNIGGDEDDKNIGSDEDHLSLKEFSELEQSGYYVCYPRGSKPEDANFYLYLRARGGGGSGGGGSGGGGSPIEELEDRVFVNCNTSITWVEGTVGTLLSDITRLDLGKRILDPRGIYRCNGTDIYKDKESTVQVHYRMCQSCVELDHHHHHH
The experiment in a line: SPR, anti-human IgG capture, 25 C. (In general: Surface plasmon resonance follows binding to a sensor surface in real time, without labels.)

For assay [2], the target named is T3, Murine GUCY2C-ECD cleaved (mouse, UniProt Q3UWA6 20-433).
T3 sequence: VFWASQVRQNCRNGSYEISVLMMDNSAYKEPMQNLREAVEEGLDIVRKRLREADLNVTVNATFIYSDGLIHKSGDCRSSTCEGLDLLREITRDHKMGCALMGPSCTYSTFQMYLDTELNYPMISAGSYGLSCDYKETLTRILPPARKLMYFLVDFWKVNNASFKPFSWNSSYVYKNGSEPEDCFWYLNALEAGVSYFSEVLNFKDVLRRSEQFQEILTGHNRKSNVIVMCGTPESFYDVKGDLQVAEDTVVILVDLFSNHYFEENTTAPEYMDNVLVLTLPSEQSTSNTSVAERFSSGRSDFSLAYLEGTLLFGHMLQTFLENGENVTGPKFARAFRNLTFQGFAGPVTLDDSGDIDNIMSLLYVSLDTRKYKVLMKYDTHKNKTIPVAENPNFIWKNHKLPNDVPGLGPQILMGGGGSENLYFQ
The experiment in a line: SPR, GUCY2c directly immobilized, 25 C.

The target in assay [3] is T4, Cynomolgus CD3 epsilon-delta (cynomolgus).
T4 chain: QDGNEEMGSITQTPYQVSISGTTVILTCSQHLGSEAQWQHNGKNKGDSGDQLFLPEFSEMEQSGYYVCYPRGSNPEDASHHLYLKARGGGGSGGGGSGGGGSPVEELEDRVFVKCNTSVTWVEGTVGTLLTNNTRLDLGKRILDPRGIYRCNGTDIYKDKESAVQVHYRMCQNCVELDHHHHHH
The experiment in a line: SPR, printed anti-His capture, 25 C (Table 33D).

Assay [4] concerns the target T5, Human GUCY2c on tumor cells (T84, HT55) (human, UniProt P25092 24-1073). The experiment in a line: cell-based or functional assay.
Assay [5] deals with T6, Human GUCY2C full length (SEQ ID NO: 224), recombinant protein (human, UniProt P25092 24-430, limits assumed).
T6 construct: also called huGUCY2C; biotinylated human GUCY2c
T6 sequence (P25092 24-430 F281L limits assumed): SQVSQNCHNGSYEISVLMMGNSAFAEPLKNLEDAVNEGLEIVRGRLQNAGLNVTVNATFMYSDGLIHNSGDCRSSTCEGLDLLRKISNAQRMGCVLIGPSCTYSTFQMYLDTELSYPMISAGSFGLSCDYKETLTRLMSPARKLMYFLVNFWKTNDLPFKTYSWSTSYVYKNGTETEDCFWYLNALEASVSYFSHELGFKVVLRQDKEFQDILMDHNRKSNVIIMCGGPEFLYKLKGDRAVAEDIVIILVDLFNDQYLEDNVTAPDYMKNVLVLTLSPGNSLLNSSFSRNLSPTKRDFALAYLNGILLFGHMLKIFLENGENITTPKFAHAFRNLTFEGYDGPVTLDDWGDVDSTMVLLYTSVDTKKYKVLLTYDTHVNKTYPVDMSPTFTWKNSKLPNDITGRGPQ
The experiment in a line: SPR, anti-human IgG capture, 25 C.

The target in assay [6] is T5, Human GUCY2c on tumor cells (T84, HT55). The experiment in a line: flow cytometry titration on T84 tumor cells (PE-A Geo Mean against Ab in nM).
The target of a further assay is T7, Human GUCY2C ECD-muIgG2a (human).
T7 construct: also called human GUCY2c ECD-mouse IgG2a Fc fusion protein; huGUCY2c-mIgG2a
T7 sequence (chain, as listed by the source limits assumed): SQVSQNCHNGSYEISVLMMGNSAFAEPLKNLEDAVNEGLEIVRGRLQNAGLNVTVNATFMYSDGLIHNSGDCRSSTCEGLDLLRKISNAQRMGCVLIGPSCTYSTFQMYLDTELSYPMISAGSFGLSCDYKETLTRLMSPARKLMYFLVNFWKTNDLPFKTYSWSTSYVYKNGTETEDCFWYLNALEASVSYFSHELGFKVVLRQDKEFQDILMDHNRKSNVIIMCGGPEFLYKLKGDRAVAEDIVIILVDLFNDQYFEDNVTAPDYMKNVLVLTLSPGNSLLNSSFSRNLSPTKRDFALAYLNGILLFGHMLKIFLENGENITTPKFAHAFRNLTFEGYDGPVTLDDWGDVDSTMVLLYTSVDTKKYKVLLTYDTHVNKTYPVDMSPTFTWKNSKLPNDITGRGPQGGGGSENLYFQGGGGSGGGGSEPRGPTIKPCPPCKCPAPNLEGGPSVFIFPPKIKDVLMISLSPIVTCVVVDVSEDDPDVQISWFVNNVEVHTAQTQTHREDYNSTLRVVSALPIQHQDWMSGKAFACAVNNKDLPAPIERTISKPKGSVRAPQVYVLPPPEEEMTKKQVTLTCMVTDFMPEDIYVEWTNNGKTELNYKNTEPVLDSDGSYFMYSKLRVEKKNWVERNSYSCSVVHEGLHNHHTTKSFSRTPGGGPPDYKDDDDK
The experiment in a line: huCD3-huGUCY2C sandwich ELISA (CD3 coated). For orientation: In an ELISA, binding on a coated surface is turned into a signal by an enzyme label.

In assay [7] the target is T5, Human GUCY2c on tumor cells (T84, HT55). The experiment in a line: cell-based or functional assay. The source holds these as a separate data set.
Assay [8] concerns the target T6, Human GUCY2C full length (SEQ ID NO: …). The experiment in a line: SPR, GUCY2c directly immobilized, 25 C.
Assay [9] concerns the target T8, Cynomolgus GUCY2C-ECD Cleaved (cynomolgus, UniProt P25092 24-430 (human entry)).
T8 construct: also called CyGUCY2C
T8 chain: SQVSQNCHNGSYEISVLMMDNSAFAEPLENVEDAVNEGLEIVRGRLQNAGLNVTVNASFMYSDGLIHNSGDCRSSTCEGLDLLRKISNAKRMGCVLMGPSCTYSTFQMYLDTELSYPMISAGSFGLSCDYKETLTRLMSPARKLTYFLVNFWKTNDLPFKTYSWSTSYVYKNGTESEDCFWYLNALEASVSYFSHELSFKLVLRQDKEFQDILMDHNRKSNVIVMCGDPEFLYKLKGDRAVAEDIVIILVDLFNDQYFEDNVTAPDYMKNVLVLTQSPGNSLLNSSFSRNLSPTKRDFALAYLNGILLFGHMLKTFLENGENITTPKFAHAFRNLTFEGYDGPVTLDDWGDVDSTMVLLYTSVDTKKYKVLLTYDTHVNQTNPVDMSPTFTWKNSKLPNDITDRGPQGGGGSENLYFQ
The experiment in a line: SPR, anti-human IgG capture, 25 C.

For assay [10], the target named is T3, Murine GUCY2C-ECD cleaved. The experiment in a line: SPR, anti-human IgG capture, 25 C.
The next assay concerns the target T9, GUCY2C-1608.
T9 construct: also called GUCY2c CD3 bispecific
The experiment in a line: competition DELFIA ELISA: peptide 19 in solution competes with the plate-bound full GUCY2c extracellular domain for GUCY2C-1608.

Experimental findings from patent US20230340151A1 (Pfizer, published 2023) are described below.

Where two headings read alike, the source gives them in different places.

By Kd is commonly meant the equilibrium constant for the complex coming apart. What is called koff is a measure of how fast the partners let go of each other. Usually kon stands for a measure of how fast the partners come together. The term EC50 denotes the concentration that produces a half-maximal response. A lower EC50 goes with a more potent agent.

T5 sequence (P25092 24-1073 limits assumed): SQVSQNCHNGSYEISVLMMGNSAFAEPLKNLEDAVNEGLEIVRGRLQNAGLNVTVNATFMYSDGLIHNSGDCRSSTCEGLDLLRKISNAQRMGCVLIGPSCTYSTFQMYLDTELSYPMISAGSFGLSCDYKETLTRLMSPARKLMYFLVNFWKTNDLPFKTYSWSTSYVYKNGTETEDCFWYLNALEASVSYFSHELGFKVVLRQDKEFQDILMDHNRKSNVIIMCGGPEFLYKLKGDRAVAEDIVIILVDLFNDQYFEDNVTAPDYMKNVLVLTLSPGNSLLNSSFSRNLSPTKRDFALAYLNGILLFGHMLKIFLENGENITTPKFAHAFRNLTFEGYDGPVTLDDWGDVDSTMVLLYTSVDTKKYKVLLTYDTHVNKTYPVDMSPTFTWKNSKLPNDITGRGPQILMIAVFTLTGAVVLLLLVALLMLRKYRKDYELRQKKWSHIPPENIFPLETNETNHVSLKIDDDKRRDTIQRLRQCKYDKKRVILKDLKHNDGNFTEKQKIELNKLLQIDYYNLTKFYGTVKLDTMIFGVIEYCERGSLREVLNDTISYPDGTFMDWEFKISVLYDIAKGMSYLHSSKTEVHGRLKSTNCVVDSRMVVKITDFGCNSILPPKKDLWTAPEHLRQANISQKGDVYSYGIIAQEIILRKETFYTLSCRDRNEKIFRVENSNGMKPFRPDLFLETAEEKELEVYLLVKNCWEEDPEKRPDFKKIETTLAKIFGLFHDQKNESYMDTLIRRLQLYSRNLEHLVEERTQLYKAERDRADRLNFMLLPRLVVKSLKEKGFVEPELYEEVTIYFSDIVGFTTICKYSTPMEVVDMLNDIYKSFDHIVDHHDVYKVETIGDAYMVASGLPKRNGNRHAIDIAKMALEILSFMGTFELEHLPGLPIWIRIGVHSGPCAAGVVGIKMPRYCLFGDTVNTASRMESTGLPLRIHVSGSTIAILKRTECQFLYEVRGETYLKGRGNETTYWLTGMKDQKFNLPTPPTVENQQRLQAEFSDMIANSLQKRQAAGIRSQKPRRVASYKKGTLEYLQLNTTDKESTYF

B1: GUCY2C-0247 (bispecific antibody)
chain 1: DIQLTQSPSSLSASVGDRVTITCRASESVDYYGTSLMQWYQQKPGKPPKLLIYAASNVESGVPSRFSGSGSGTDFTLTISSLQPEDFATYYCQQTRKVYTFGQGTKLEIKGGGSGGGGEVQLVESGGGLVQPGGSLRLSCAASGFTFSDYYMTWVRQAPGKGLEWVAFIRNRARGYTSDHNPSVKGRFTISRDNAKNSLYLQMNSLRAEDTAVYYCARDRPSYYVLDYWGQGTTVTVSSGCPPCPAPEAAGAPSVFLFPPKPKDTLMISRTPEVTCVVVDVSHEDPEVKFNWYVDGVEVHNAKTKPREEQYNSTYRVVSVLTVLHQDWLNGKEYKCKVSNKALPAPIEKTISKAKGQPREPQVCTLPPSREEMTKNQVSLWCLVKGFYPSDIAVEWESNGQPENNYKTTPPVLDSDGSFFLYSKLTVDKSRWQQGNVFSCSVMHEALHNHYTQKSLSLSPG
chain 2: DIVMTQSPDSLAVSLGERATINCKSSQSLFNVRSRKNYLAWYQQKPGQPPKLLISWASTRESGVPDRFSGSGSGTDFTLTISSLQAEDVAVYYCKQSYDLFTFGSGTKLEIKGGGSGGGGEVQLVESGGGLVQPGGSLRLSCAASGYTFTSYWMHWVRQAPGKGLEWIGEIKPSNGLTNYIEKFKNRFTISVDKAKNSAYLQMNSLRAEDTAVYYCTRTITTTEGYWFFDVWGQGTLVTVSSGCPPCPAPEAAGAPSVFLFPPKPKDTLMISRTPEVTCVVVDVSHEDPEVKFNWYVDGVEVHNAKTKPREEQYNSTYRVVSVLTVLHQDWLNGKEYKCKVSNKALPAPIEKTISKAKGQPREPQVYTLPPCREEMTKNQVSLSCAVKGFYPSDIAVEWESNGQPENNYKTTPPVLDSDGSFFLVSKLTVDKSRWQQGNVFSCSVMHEALHNHYTQKSLSLSPG
On to B1, for which the dissociation constant (Kd) in assay [1] was 6.18 nM; in the assay with Human CD3 epsilon-delta, 3.34 nM; in [2] it was 12.2 nM; in assay [3] it was 3.61 nM; in [5], 4.65 nM; in [6], 1.32 nM. Moreover, the results for the Kd in assay [8] and in assay [9] were 3.01 nM and 4.35 nM, respectively. Also, the off-rate (koff) with Human CD3 epsilon-delta is 0.000985 s⁻¹; in assay [2], 0.00183 s⁻¹; in assay [3], 0.001 s⁻¹; in assay [5], 0.000457 s⁻¹; in [8], 0.000433 s⁻¹; in assay [9] it was 0.000369 s⁻¹. Besides, the kon is 295000 M⁻¹ s⁻¹ with Human CD3 epsilon-delta; 150000 M⁻¹ s⁻¹ in assay [2]; 280000 M⁻¹ s⁻¹ in assay [3]; 98200 M⁻¹ s⁻¹ in [5]; 144000 M⁻¹ s⁻¹ in [8]; 85500 M⁻¹ s⁻¹ in [9]. The “T84 tumor cell EC50 (T cell cytotoxicity, E:T 5:1)” value in assay [4] and in [7] was 0.07 nM in each case. The same molecule showed an EC50 in the assay with Human GUCY2C ECD-muIgG2a of 0.705 nM.

B2: GUCY2C-0240 (bispecific antibody)
chain 1: DIQLTQSPSSLSASVGDRVTITCRASESVDNYGISFMNWFQQKPGKAPKLLIYAASNPGSGVPSRFSGSGSGTDFTLTISSLQPEDFATYYCQQSKEVPYTFGQGTKLEIKGGGSGGGGEVQLVESGGGLVQPGGSLRLSCAASGFTFSDYYMTWVRQAPGKGLEWVAFIRNRARGYTSDHNPSVKGRFTISRDNAKNSLYLQMNSLRAEDTAVYYCARDRPSYYVLDYWGQGTTVTVSSGCPPCPAPEAAGAPSVFLFPPKPKDTLMISRTPEVTCVVVDVSHEDPEVKFNWYVDGVEVHNAKTKPREEQYNSTYRVVSVLTVLHQDWLNGKEYKCKVSNKALPAPIEKTISKAKGQPREPQVCTLPPSREEMTKNQVSLWCLVKGFYPSDIAVEWESNGQPENNYKTTPPVLDSDGSFFLYSKLTVDKSRWQQGNVFSCSVMHEALHNHYTQKSLSLSPG
chain 2: DIVMTQSPDSLAVSLGERATINCKSSQSLFNVRSRKNYLAWYQQKPGQPPKLLISWASTRESGVPDRFSGSGSGTDFTLTISSLQAEDVAVYYCKQSYDLFTFGSGTKLEIKGGGSGGGGEVQLVESGGGLVQPGGSLRLSCAASGYTFTTYWMQWVRQAPGKGLEWIGAIYPGDGMTTYTQKFKDRFTISADKAKNSAYLQMNSLRAEDTAVYYCVRKGMDYWGQGTLVTVSSGCPPCPAPEAAGAPSVFLFPPKPKDTLMISRTPEVTCVVVDVSHEDPEVKFNWYVDGVEVHNAKTKPREEQYNSTYRVVSVLTVLHQDWLNGKEYKCKVSNKALPAPIEKTISKAKGQPREPQVYTLPPCREEMTKNQVSLSCAVKGFYPSDIAVEWESNGQPENNYKTTPPVLDSDGSFFLVSKLTVDKSRWQQGNVFSCSVMHEALHNHYTQKSLSLSPG
As for B2, the Kd with Human CD3 epsilon-delta was 3.73 nM; in [2], 42.3 nM; in assay [3], 4.71 nM; in assay [5], 37.9 nM; in assay [10], 317 nM; in assay [8], 37.9 nM. Also, in assay [9], the dissociation constant (Kd) came out at 91.2 nM. For the same molecule, the koff was 0.00129 s⁻¹ with Human CD3 epsilon-delta; 0.00515 s⁻¹ in assay [2]; 0.00207 s⁻¹ in assay [3]; 0.00364 s⁻¹ in [5]; 0.00336 s⁻¹ in assay [10]; 0.00364 s⁻¹ in assay [8]. In assay [9], this molecule displayed a koff of 0.00234 s⁻¹. The association rate constant (kon) with Human CD3 epsilon-delta worked out at 347000 M⁻¹ s⁻¹; in [2], 122000 M⁻¹ s⁻¹; in assay [3], 440000 M⁻¹ s⁻¹; in [5], 96200 M⁻¹ s⁻¹; in assay [10] it was 10600 M⁻¹ s⁻¹; in [8], 96200 M⁻¹ s⁻¹. This molecule also came in with a kon in [9] of 26100 M⁻¹ s⁻¹. Also, the “T84 tumor cell EC50 (T cell cytotoxicity, E:T 5:1)” value in [4] and in assay [7] was 0.53 nM throughout. Further, the 50% effective concentration (EC50) in the assay with Human GUCY2C ECD-muIgG2a came to 0.0799 nM.

B3: GUCY2C_ECD Peptide 19 (peptide)
peptide: NSGDCRSSTCEGLDLLRKIS
notes: also called GUCY2c peptide 19; GUCY2c-ECD peptide number 19
Consider B3, for which the “IC50 (read off the curve)” value with GUCY2C-1608 is about 100 nM.
